The DeepSol protein solubility set

Assay: soluble on expression in E. coli; label from the status in PepcDB or PDB records

Sequence | soluble on expression in E. coli
MTTNPIELESCIIDQIRCPECALTCLQKNIYRHMTQIHNWTTEDCQELIAAIKSEKKSRASSTSFVCCHCRMIFRSVKHLVQHKKMCTEQPQHDNEHLDVYIDEMIVEGEEEVVGINEYDINETKESTQKPSTSSGDSFEMNIPPHRQASRPIQPHHLTQECQIATIIEKPSKFSLMQLPGKYRGCNLKCPECSSTSESLDEFLLHCRQEHMSHDQKFNLEREFFQSRDQFKEWFDQRQEDTCTSLTKRTGHAGETLYRCHRVGKYQSVAKSRKSNPRKIDQTCTAYLKVTTEEDGSTWATGCFTHIGHDLDHKLLWLTESQEKYVRELIDLGWTSDQIFFFIRNEYKDYECKLKYISKNDIRNITVRYNREREKLGFLTDTAKSSAIPISLKERRAVAADSTKEPREEDDDEVKAKIPRMQSKPDNIEKATTSENNSAKHREQVVDSETAEEDEYINVVDVDTMPPNDAGKITIGLNF | not soluble
MSSVGDFEEIILHDLKPYYHVPGAIHSEGITFVKETGTLLWVDIFKGEVHKVEDIEQPESSHSFFSISRANYGKNASIEYPPNPDELKESVGCIFPILDGASQNEIKQVLFGSKFGIGKLDFSKSEWEYVILYSECPELSTDRAYKLRSNDGNVSPDGKYIYVGLMSDFPFDLEPIGCLLRVDLLAHKIELVWNCLLIPNAIHWDESDQKTMYVTDSLNFTIWKCPGGDLLKRDELIDVKNSNNQSFESPEPDGSAIWFSKDGKHSGFLFITVWSTSKVQMFDLTNGKLLKEFILPEQTPRVSCCCFVGKDLFVTTANAEINDAVRTNTDKNGGCIYKIPNVLDGNVPLESTKRQPLH | soluble
MKTVALIQARLGSSRLPCKMMLSLHGLPVIDWVVRRVRRATLVDEVVVATSTQPENDILEHHLSRQGVAVFRGPEDDVLERFRLAGAAYGAEQVVRVCADNPLIWGGAIDDLIRFWRAEGCDYAYNHIPRGNLYPDGLGAETLSFALLEEVAREATLPEHREHCLSFIWAHPERYTIRTFDPADPALHRPDLKLDMDTPADYRYLALMDIHPDITPEELVAMLPRTALEHHHHHH | soluble
MRLLVMVFTSDKKLVEEIKREVERRGFRVRDVQSPDELRRDLEKLLREHNAQFVIIVVTDKEWAKEALKKAKEEGVQIFLILWDTNEDELRKFREEVERKGVDVRTATSPDDVKDIVREFLERVGSHHHHHH | soluble
MADEALFLLLHNEMVSGVYKSAEQGEVENGRCITKLENMGFRVGQGLIERFTKDTARFKDELDIMKFICKDFWTTVFKKQIDNLRTNHQYLAFTCGLIRGGLSNLGIKSIVTAEVSSMPACKFQVMIQKL | not soluble
MSNEEIKNKDEQLQQDAVETEAEVVGTDADIDWNQAADEIDEKEAKIAQLEAALLVSEERVKEQQDSVLRARAEVENMRRRSEQEVDKARKFALSRFAEELLPVIDNLERAIQAADGEVEAIKPLLEGVELTHKTFVDTIAKFGLKEINPHGEVFNPEFHQAMSIQESAEHEPNTVMFVMQKGYELNGRVLRPAMVMVSK | not soluble
MRLPILIINFKAYGEAAGKRAVELAKAAERAARELGVNIVVAPNHLELGLVSQSVDIPVYAQGADVEAGGAHTAHVSLENIKEAGGSGVILNHSEAPLKLNDLARLVAKAKSLGLDVVVCAPDPRTSLAAAALGPHAVAVEPPELIGTGRAVSRYKPEAIVETVGLVSRHFPEVSVITGAGIESGDDVAAALRLGTRGVLLASAAVKAKDPYAKIVELAKPLSELR | soluble
MAKSLLRSGNLDDYQAVGGGGQAVFESALQIRETLRLRKQQAMVDCLAIPQLNDNGDRVDWYSPIEGQAIAWKAADEETRSRALRYLASTFESAAALSRKSLQSGKTALQLFGSLLEKATQFPGENHVFLVNGKPVITFWGFVNLNENTRDDVLDCLRVTEAIPDIPLVEPEPEEKPLVEAAFSQADEPLLTSVIEPPKMPEEPAAPPVIVSEPKPAAPIPVAEAKRARRLPLWSLPVAAVVIAAVATPFFWPSSSVDGASPVRAAPVATAKTDVTPLPELTAHLPLHRAEVTPAPKAAPLPEAPVIIAAIPKDALVMDNTQMKLGTTRFLNGSWRISVDVKDPITGKPPSLRYQIQNNKGIARVVHGDNVVCRAEIFSGLHQTGELMIKSRGNARCTDGSRYPMPEITCKAGVNDVATCTARYGDHAAIPLTFKKIGA | not soluble
MNDVSKASLPKAIFLMGPTASGKTALAIELRKVLPVELISVDSALIYRGMDIGTAKPNADELKAAPHRLLDIRDPSQAYSAADFRRDALAQMAEITAAGRIPLLVGGTMLYFKALLEGLSPLPSADPEVRSRIEQQAAELGWEALHQQLQEIDPVAAARIHPNDPQRLSRALEVFFISGKTLTELTQTSGDALPYQVHQFAIAPASRELLHQRIELRFHQMLASGFEAEVRALFARGDLHTDLPSIRCVGYRQMWSYIEGEISYDEMVYRGVCATRQLAKRQMTWLRGWEGVRWLDSENPDRARKEVLQVVGAIADMAGDPLEHHHHHH | not soluble
MRFPELEELKNRRTLKWTRFPEDVLPLWVAESDFGTCPQLKEAMADAVEREVFGYPPDATGLNDALTGFYERRYGFGPNPESVFAIPDVVRGLKLAIEHFTKPGSAIIVPLPAYPPFIELPKVTGRQAIYIDAHEYDLKEIEKAFADGAGSLLFCNPHNPLGTVFSEEYIRELTDIAAKYDARIIVDEIHAPLVYEGTHVVAAGVSENAANTCITITATSKAWNTAGLKCAQIFFSNEADVKAWKNLSDITRDGVSILGLIAAETVYNEGEEFLDESIQILKDNRDFAAAELEKLGVKVYAPDSTYLMWLDFAGTKIEEAPSKILREEGKVMLNDGAAFGGFTTCARLNFACSRETLEEGLRRIASVL | not soluble
MSLTAGKMNVKEKIKDIHFYRAVSDISRPIADSTHTISQIGFYIVELMTAEGVRGQGYVLSFHYSPGAMEGALRDVCSFISAGEYAVYDTVLARADWDREAEYFGNTGINNCAIAAVNLAMWDAWGHTCRQPVWKMLGANRRRIPVYGSGGWISYTDQELLEEVLDYKKRGFKAVKIKVGSGSIERDAERLAKCREALGDSVKIMMDANQGFNVPDALELARRASSMGIQWFEEPVVHTDYAGYQLLRNQCGIALAMGEREYDFEALKQLSVRNALDLWQPDIVRLGGVEAWRESAALAEAFGLPVLPHYYKDYDVPLLCTVRSPYGAESFDWIDGIIDNAMEIENGFASPREGDGWGFRFREECMTEVEGHHHHHH | soluble
MGSDKIHHHHHHMETITKKANLSLLELPSGGEESLFCRLYSPALAGPAPLIVLFHGFPGKQLNMDWAVQLQNLSFHVLVTSYRGTIGSPGAFRFRHVLEDATAIMQHVVSPEFTQAHDISADQISIVGHSMGGFAGLHAFIDVPDIAHYIGISPFNFGLIGQLVLDYPEHEEALQGVLSRGAQFLSHTDGDILLDELKRHHATWNLLSLKEQLGTRSALLVTSERDETSIKSLHHDLLQDASAFEQIIVDSDHNYIENREDAFRAWTTWLRRR | not soluble
MTTTLKAIVRKPRTDGLYAVYIRIVHNRKPGYIKTNKIVDADHISKDNEPTDPVVNEYCSMLVRQYTDRLNRANTTLWSVSEIIEYLLKTDEEVCFSDYSRMFIRQMRLDGHERNAKNYQLAVAHLERYMGTTRVMFGHLTAAVLKKWIESLSKTHRAKEMYPTNVRMIFRSAIADMNDDEKGIQRIKFDPWVKVQIPKSEPSEKLAISAEECREFFNRPLPRTKMLSSLPELGRDVALLSLCLGGINTVDLYNLKKSDYHDGIIGYKRAKTKHSRKDEAYIEMRVEPFIQDTFNKYLSEEEDEFLFTFHQRYGNTDSFNANVNIGIRKICMDMGMTNKEDFYCFYTFRHTWATIAQNDCNANLYEVAFGMNHSHGFKVTRGYVKVDFTPAWALNARIIDFIFFSNKPSKQGLAKDLDESGDKMFRISAKMMIYARAYFKGEVIAEFTDIGFNNVDEVLSRIVKMFPKDIPVGCTVQIRLTNCDNHKEVVYERSKGKGF | not soluble
MAQIVRQSKFRHVFCKPVKHESCMSDIRVTEITWDSLFCDVNPKFIAFINRGAGGPFMVIPVNKIGRVDKDYPFVDAHKAPCLEVAWSPFNDNVIASCSEDTTCKVWVIPDRGLNRNLSEPAVELTGHQKRVNTIAWHPVANNVLLTAGGENVMFMWNVGTGEALLEISGHPDQIWSINFNFDGSQFVTTCKDKKIRILDSHTGEVVHEGMGHEGVKPQRAIFVKDGLILSTGFTKRSERLYALRAPEDLSTPIVEEELDTSNGVVFPFYDEDSGLVYLVGKGDCAIRYYEVNNDAPYVHYINTYTTNEPQRAVGFQSKRGMSSEENEINRIYKLTTKGVVDILQFFVPRKSDLFQHDLYPDTRSTIPALTAEEFMEGKNAAPNRQPVNAAAAAAAAKPKVQVAKKANILSTLAPTAAESVPTQSYSERPPSSQQPSPRPSASPRPRPVVDDDMGIVTMREAPPSRPASSRASRTEIPPKEESKVDPMKPKQAVQLKSRAARDEPGGGAQTAGQRRAAAELERIKRDQSRTADEDNTLAPPPSSSRASASPRGSVSAASDHVPQNMDELLEDLMKMKAVLRQHERRIRMLEEEIADRNMSNAYSF | not soluble
QVQLQESGGGLVQAGGSLRLSCAASGSIFSINSMDWDRQAPGKQRELVATITSGGSTNYADSVKGRFTISRDNAKNTVYLQMNSLKPEDTAVYYCNANVKTWAGMTRDYWGQGTQVTVSSHHHHHH | soluble
MSSGVAAPQPSSCVPSRVSVLSMDFEDIYRFFQDPPPHYLSKELAVCYVLAVLRHEDSYGTELIQHLETHWPNYRLSDTVLYTALKFLEDEQIISGYWKKVEGRGRPRRMYQLAQANDDRSRDLAQLWERYLSSSAATDRQLIPVEAR | soluble
MSLDVDLAPPGPLAAGGLRVTALGGISEIGRNMTVFEHLGRLLIIDCGVMFPTHDEPGVDLILPDLRHIEDRLDDIEALVLTHAHEDHIGGIPYLLKLRPDIPVVGSKFTLALVAAKCREHRLKPVFVEVSEGHKSTHGVFECEYFAVNHSIPDALAIAVHTGAGTVLHTGDIKLDQLPLDGRPTDLPGMSRLGDAGVDLFLCDSTNAELPGVGPSESEVGPTLHRLIRGAEGRVIVACFASNVDRVQQIIDAAVALGRRVSFVGRSMVRNMGIARELGFLRVADADVIDIGAAELMPPERVVLITTGTQGEPMSALSRMSRGEHRSITLTAGDLVVLASSLIPGNEEAVYGVIDELAKIGARVVTNAQARVHVSGHAYAGELLFLYNGVRPRHVMPVHGTWRMLRANSKLAARTGVPEESILLAENGVSVDLVAGRASISGAVPVGKMFVDGLVDGDVGDITLGERLILSSGFVAVTVVVQRGTGRPVAPPHLHSRGFSEDPKALEPAVRRVEEELEALVAENITDPSRIAQGVRRTVGKWVGETYRRQPMIVPTVIEVEGHHHHHH | soluble
MTKIAESKIIVGLDIGTSKIAVVVGEVLPDGVINVLGASNCPSKGIDRGGVIDLDAAVNSIQRAIEQAESVSNCQIMGVTLAISGQHITALNESGVIPLSGTVVRKEDIDAAIHIAHSIKLPDG | not soluble
MASTGLRVDLYEEHGRVGMPEHCTGIVSERTVNTIGREARETIIDSYDSLEIRFRGETLAVLDVGTVYRLDRVRLEELLLESLMSLGGRAQLGKRVHSVGIEGSVKAGGSEARYDAVILADGAHGELHRMLDLGYRGDYYYGLNILVPGKRESTILVDFILDRGLAFTWDVPTVGSVSVAGAMGTLAGVKRFFEVLKPRAFKVYGGRIPAGPPAERLRRGRVYVVGDAGGLVKPLSGGGLYPNAKAAKLAASLIKRGLDVGEALEKSLSIVSHELRAQHAVARLVYGTRVLETISRAVGGAPLRLRLDYDTHHQLVISTLSQVGALSSQRLAAAALRGGGLEAPLSLVKVLYHSSASAYKRLASGRLPGVLEHHHHHH | not soluble
MVKQLNSVEAFREFIHQYPLAVVHVMRDQCSVCHAVLPQIEDLMQSYPNVPLAVINQSQVEAIAGELNIFTVPVDLIFMNGKEMHRQGRFIDMQRFEHHLKQMNDSVNNDVDEHEYRK | soluble
